According to the supplement of paper PMC11246515:
± gives the standard deviation of the averaged measurements.

Assay: total protein half-life in vivo (active degradation + dilution); higher = more stable protein
[1] = E. coli NCM3722 delta-clpP delta-lon delta-hslV, growth: N-lim chemostat, doubling time 6 h
[2] = E. coli NCM3722 delta-clpP, growth: N-lim chemostat, doubling time 6 h
[3] = E. coli NCM3722 delta-lon, growth: N-lim chemostat, doubling time 6 h
[4] = wild type E. coli NCM3722, growth: C-lim chemostat, doubling time 6 h
[5] = wild type E. coli NCM3722, growth: N-lim chemostat, doubling time 6 h
[6] = wild type E. coli NCM3722, growth: P-lim chemostat, doubling time 6 h
[7] = wild type E. coli NCM3722, growth: P-lim chemostat, doubling time 12 h
[8] = E. coli NCM3722 delta-hslV, growth: N-lim chemostat, doubling time 6 h
[9] = E. coli NCM3722 delta-smpB, growth: N-lim chemostat, doubling time 6 h
[10] = wild type E. coli NCM3722, growth: C-lim chemostat, doubling time 3 h
[11] = wild type E. coli NCM3722, growth: C-lim chemostat, doubling time 12 h
[12] = wild type E. coli NCM3722, growth: N-lim chemostat, doubling time 12 h

Row | Sequence | total protein half-life in vivo [1] [h] | total protein half-life in vivo [2] [h] | total protein half-life in vivo [3] [h] | total protein half-life in vivo [4] [h] | total protein half-life in vivo [5] [h] | total protein half-life in vivo [6] [h] | total protein half-life in vivo [7] [h] | total protein half-life in vivo [8] [h] | total protein half-life in vivo [9] [h] | total protein half-life in vivo [10] [h] | total protein half-life in vivo [11] [h] | total protein half-life in vivo [12] [h]
1 | MFEYLPELMKGLHTSLTLTVASLIVALILALIFTIILTLKTPVLVWLVRGYITLFTGTPLLVQIFLIYYGPGQFPTLQEYPALWHLLSEPWLCALIALSLNSAAYTTQLFYGAIRAIPEGQWQSCSALGMSKKDTLAILLPYAFKRSLSSYSNEVVLVFKSTSLAYTITLMEVMGYSQLLYGRTYDVMVFGAAGIIYLVVNGLLTLMMRLIERKALAFERRN [P0AE30] | 5.31 | 6.27 | 5.01 | 5.55 | 5.22 | 6.32 | 11 | – | – | – | – | –
2 | MFHCPLCQHAAHARTSRYITDTTKERYHQCQNVNCSATFITYESVQRYIVKPGEVHVVRPHPLPSGQQIMWM | 5.58 ± 1.3 | – | – | – | – | – | – | – | – | – | – | –
3 | MFHRLWTLIRKELQSLLREPQTRAILILPVLIQVILFPFAATLEVTNATIAIYDEDNGEHSVELTQRFARASAFTHVLLLKSPQEIRPTIDTQKALLLVRFPADFSRKLDTFQTAPLQLILDGRNSNSAQIAANYLQQIVKNYQQELLEGKPKPNNSELVVRNWYNPNLDYKWFVVPSLIAMITTIGVMIVTSLSVAREREQGTLDQLLVSPLTTWQIFIGKAVPALIVATFQATIVLAIGIWAYQIPFAGSLALFYFTMVIYGLSLVGFGLLISSLCSTQQQAFIGVFVFMMPAILLSGYVSPVENMPVWLQNLTWINPIRHFTDITKQIYLKDASLDIVWNSLWPLLVITATTGSAAYAMFRRKVM [P0AFP9] | – | 6.75 ± 1.4 | 7.11 | 6.05 ± 0.27 | 6.33 ± 0.16 | 6.38 | – | > 8 | 5.25 ± 0.36 | 3.51 | 12.97 ± 0.071 | 12.1 ± 1.1
4 | MFIGFDYGTANCSVAVMRDGKPHLLKMENDSTLLPSMLCAPTREAVSEWLYRHHDVPADDDETQALLRRAIRYNREEDIDVTAKSVQFGLSSLAQYIDDPEEVWFVKSPKSFLGASGLKPQQVALFEDLVCAMMLHIRQQAQAQLPEAITQAVIGRPINFQGLGGDEANTQAQGILERAAKRAGFRDVVFQYEPVAAGLDYEATLQEEKRVLVVDIGGGTTDCSLLLMGPQWRSRLDREASLLGHSGCRIGGNDLDIALAFKNLMPLLGMGGETEKGIALPILPWWNAVAINDVPAQSDFYSSANGRLLNDLVRDAREPEKVALLQKVWRQRLSYRLVRSAEECKIALSSVAETRASLPFISNELATLISQRGLESALSQPLTRILEQVQLALDNAQEKPDVIYLTGGSARSPLIKKALAEQLPGIPIAGGDDFGSVTAGLARWAEVVFR | 4.24 ± 0.21 | 3.46 ± 0.21 | 3.061 ± 0.019 | 5.13 ± 0.5 | 3.1 | 4.93 ± 0.058 | 7.96 ± 0.29 | 3.42 ± 0.99 | 2.69 ± 0.13 | 2.8 ± 0.11 | 9.46 ± 2.2 | 3.87
5 | MFIRAPNFGRKLLLTCIVAGVMIAILVSCLQFLVAWHKHEVKYDTLITDVQKYLDTYFADLKSTTDRLQPLTLDTCQQANPELTARAAFSMNVRTFVLVKDKKTFCSSATGEMDIPLNELIPALDINKNVDMAILPGTPMVPNKPAIVIWYRNPLLKNSGVFAALNLNLTPSLFYSSRQEDYDGVALIIGNTALSTFSSRLMNVNELTDMPVRETKIAGIPLTVRLYADDWTWNDVWYAFLLGGMSGTVVGLLCYYLMSVRMRPGREIMTAIKREQFYVAYQPVVDTQALRVTGLEVLLRWRHPVAGEIPPDAFINFAESQKMIVPLTQHLFELIARDAAELEKVLPVGVKFGINIAPDHLHSESFKADIQKLLTSLPAHHFQIVLEITERDMLKEQEATQLFAWLHSVGVEIAIDDFGTGHSALIYLERFTLDYLKIDRGFINAIGTETITSPVLDAVLTLAKRLNMLTVAEGVETPEQARWLSERGVNFMQGYWISRPLPLDDFVRWLKKPYTPQW | 6.645 ± 0.021 | 6.81 ± 0.3 | 6.55 ± 1 | 5.92 ± 1.2 | 5.91 ± 0.13 | 5.7999 ± 0.0026 | 10.4 ± 0.3 | 6.17 ± 0.16 | 5.84 ± 0.17 | – | 10.5 ± 0.13 | 11.2 ± 0.95
6 | MFKFLVLTLGIISCQAYAEDTVIVNDHDISAIKDCWQKNSDDDTDVNVIKSCLRQEYNLVDAQLNKAYGEAYRYIEQVPRTGVKKPDTEQLNLLKKSQRAWLDFRDKECELILSNEDVQDLSDPYSESEWLSCMIIQTNTRTRQLQLYRNSEDFYPSPLTRG | – | – | – | – | – | – | – | 6.44 | – | – | – | –
7 | MFKKGLLALALVFSLPVFAAEHWIDVRVPEQYQQEHVQGAINIPLKEVKERIATAVPDKNDTVKVYCNAGRQSGQAKEILSEMGYTHVENAGGLKDIAMPKVKG | – | – | 2.7 ± 0.26 | 2.89 | – | – | 3.19 | – | 2.61 | 1.97 ± 0.051 | 3.42 ± 0.39 | –
8 | MFKPELLSPAGTLKNMRYAFAYGADAVYAGQPRYSLRVRNNEFNHENLQLGINEAHALGKKFYVVVNIAPHNAKLKTFIRDLKPVVEMGPDALIMSDPGLIMLVREHFPEMPIHLSVQANAVNWATVKFWQQMGLTRVILSRELSLEEIEEIRNQVPDMEIEIFVHGALCMAYSGRCLLSGYINKRDPNQGTCTNACRWEYNVQEGKEDDVGNIVHKYEPIPVQNVEPTLGIGAPTDKVFMIEEAQRPGEYMTAFEDEHGTYIMNSKDLRAIAHVERLTKMGVHSLKIEGRTKSFYYCARTAQVYRKAIDDAAAGKPFDTSLLETLEGLAHRGYTEGFLRRHTHDDYQNYEYGYSVSDRQQFVGEFTGERKGDLAAVAVKNKFSVGDSLELMTPQGNINFTLEHMENAKGEAMPIAPGDGYTVWLPVPQDLELNYALLMRNFSGETTRNPHGK | 2.98 ± 0.19 | 1.94 ± 0.45 | 2.01 ± 0.14 | 3.68 ± 0.062 | 1.91 ± 0.17 | 4.1 ± 0.069 | 7.89 ± 0.33 | 1.96 ± 0.29 | 1.77 ± 0.092 | 2.77 ± 0.029 | 5.83 ± 0.49 | 2.5 ± 0.0042
9 | MFKRRYVTLLPLFVLLAACSSKPKPTETDTTTGTPSGGFLLEPQHNVMQMGGDFANNPNAQQFIDKMVNKHGFDRQQLQEILSQAKRLDSVLRLMDNQAPTTSVKPPSGPNGAWLRYRKKFITPDNVQNGVVFWNQYEDALNRAWQVYGVPPEIIVGIIGVETRWGRVMGKTRILDALATLSFNYPRRAEYFSGELETFLLMARDEQDDPLNLKGSFAGAMGYGQFMPSSYKQYAVDFSGDGHINLWDPVDAIGSVANYFKAHGWVKGDQVAVMANGQAPGLPNGFKTKYSISQLAAAGLTPQQPLGNHQQASLLRLDVGTGYQYWYGLPNFYTITRYNHSTHYAMAVWQLGQAVALARVQ | 5.38 ± 0.079 | 5.65 ± 2 | – | – | 5.55 ± 0.14 | 5.1 | > 16 | – | 5.5 ± 0.089 | 3.61 | – | 10.8
10 | MFNEVHSIHGHTLLLITKSSLQATALLQHLKQSLAITGKLHNIQRSLDDISSGSIILLDMMEADKKLIHYWQDTLSRKNNNIKILLLNTPEDYPYRDIENWPHINGVFYSMEDQERVVNGLQGVLRGECYFTQKLASYLITHSGNYRYNSTESALLTHREKEILNKLRIGASNNEIARSLFISENTVKTHLYNLFKKIAVKNRTQAVSWANDNLRR | – | 1.72 ± 0.18 | – | – | 0.875 | – | 1.48 ± 0.36 | 0.584 | 0.772 | – | – | 1.84
